Test results from patent US20240360219A1.

How the values were obtained:
human TGFβ3 (human) = human TGFβ3 (human) (UniProt P10600)
human TGFβ1 (human) = human TGFβ1 (human) (UniProt P01137)
Sequence of UniProt P01137 (P01137 279-390 limits assumed): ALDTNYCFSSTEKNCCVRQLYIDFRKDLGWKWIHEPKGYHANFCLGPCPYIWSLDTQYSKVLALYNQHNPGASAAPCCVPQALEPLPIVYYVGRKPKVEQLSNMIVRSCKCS

Sequence of UniProt P10600 (P10600 301-412 limits assumed): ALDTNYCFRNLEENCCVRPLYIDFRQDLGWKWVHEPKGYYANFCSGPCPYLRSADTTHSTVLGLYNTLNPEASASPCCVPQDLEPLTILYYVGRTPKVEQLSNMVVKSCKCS

Substance: M7824
- IC50, inhibition of TGFβ3-induced Smad2 reporter activity (human TGFβ3 (human)): 1.95 nM
- IC50, inhibition of TGFβ1-induced Smad2 reporter activity (human TGFβ1 (human)): 0.91 nM
